Test results published in US20230348629A1.

Target: human TIGIT on HEK293A/human TIGIT cells (human) (UniProt Q495A1)
Experiment: cell-based or functional assay

Chain of human TIGIT on HEK293A/human TIGIT cells (human) (Q495A1 22-244 limits assumed): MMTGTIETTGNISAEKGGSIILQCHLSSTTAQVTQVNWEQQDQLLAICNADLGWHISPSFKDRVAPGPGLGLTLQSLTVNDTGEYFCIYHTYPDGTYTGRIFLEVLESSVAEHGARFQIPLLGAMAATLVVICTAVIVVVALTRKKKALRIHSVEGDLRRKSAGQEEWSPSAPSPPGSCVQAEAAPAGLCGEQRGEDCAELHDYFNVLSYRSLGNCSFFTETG

With Tiragolumab (antibody) as the substance, how does the EC50, NK92 (NK92MI-CD16a) cell-mediated ADCC, LDH release read?
Its EC50, NK92 (NK92MI-CD16a) cell-mediated ADCC, LDH release is 511 pM.

What about the EC50, PBMC-mediated ADCC, death rate of GFP+ cells by FACS of the same substance?
Its EC50, PBMC-mediated ADCC, death rate of GFP+ cells by FACS is 311 pM.
